Assay results taken from patent US20090275105A1, “PROCESS FOR THE PRODUCTION OF BROMELAIN BY MEANS OF SUBSTANCES THAT INDUCE PROTEINS IN PINEAPPLE PLANTS” (priority 2006, published 2009).
One block for each compound: values may come before it.

Columns and labels:
[1] = Comparison of the specific activity of bromelain obtained from different methods; assay type: biochemical, Ananas comosus; settings: 30 mg/ml protein sample; inducers: 15 days from induction
Method: The plantlets grown in vitro in different culture mediums indicated in this invention were taken and rinsed in running water to remove the Induction SS medium. 330 g of plants were weighed, placed in an extractor to be ground and 200 ml of juice was obtained (first extraction) that was stored at a temperature of 4° C. 670 ml of extraction buffer (monobasic potassium phosphate and dibasic potassium phosphate) is added to the pulp obtained from the extraction at a pH of 6.1 and a concentration of 0.05M; this is allowed to repose for 20 minutes in order to afterwards collect the enzyme and pass it through an extractor and thus obtain the second juice. The following step is to mix and homogenize the juice from the first extraction with the second extraction for 1 minute at 2000 rpm and to then centrifuge at 10000 rpm for 20 min. at 4° C., to afterwards recover the supernatant with a volume of approximately 800 ml which is frozen at −80° C. and lyophilized (10% of solids) for its preservation. The extraction procedure is applied for all the treatments of which the amount of protein present is determined (Bradford) expressing the protein per ml of extract in mg. A standard curve is used for the protein tests. The standard used was bovine serum albumin at 0.20-1.0 mg/ml. Based on the results, the following specific activities were obtained compared with imported commercial bromelain and bromelain induced from in vitro plants.

[2] = test system: pineapple plants (Ananas comosus); assay: Specific enzyme activity of raw extract from pineapple plantlets induced in vitro (Dapeau method); assay type: in vivo; settings: sacarose 30-90 g/L as inducer
Method: In order to perform the evaluation of the inducers, a factor design was carried out of 3×3×3 with three inducers at three different concentrations and three monitoring times (Chart 4), for each treatment The evaluations are carried out using the inducers separately or in combination giving a total of […]. […] The induction was begun with the selection of the sprouts previously established in vitro with a size of 2 cm and an average of 3 leaves and weighing 120 mg. […] Once the inducers are added to the modified SS, it is sterilized at 121° C., at a pressure of 1.2 kg/cm^2 for 20 minutes. In the treatments that contain salicylic acid, the modified SS medium is first sterilized and later the acid is added, which was sterilized through filtration, under aseptic conditions in a laminar flow hood. Here it is advisable to add the acid to the medium before it is cooled to achieve the homogenization of the inducer with the medium before it is solidified. The sprouts are planted under aseptic conditions in 460 ml flasks that contain 30 ml of the Induction SS, said flasks are closed and sealed with clear tape in order to avoid any filtering of air and with the air, contamination of same. The treatments are moved to a growth room under controlled conditions at 27±2° C. and a photoperiod of 16 hr/light and 8 hr/darkness for a period of 7, 15, 30 and 45 days. […]

[3] = fractioning with ammonium sulfate; cited from earlier work
[4] = bromelain obtained from stems; cited from earlier work
[5] = cited from earlier work

Compound: O=C(O)c1ccccc1O [Salicylic acid]
Specific activity (U/mg^−1 protein) [1]: 3.17 U/mg^−1 protein

Compound: [Cl-].[Na+] [NaCl, sodium chloride]
Specific activity (U/mg^−1 protein) [1]: 4.98 U/mg^−1 protein

specific activity in induction tests, comparison of inducers [2]: greater specific activity
Compound: OC[C@H]1O[C@@](CO)(O[C@H]2O[C@H](CO)[C@@H](O)[C@H](O)[C@H]2O)[C@@H](O)[C@@H]1O [Sacarose]
Specific activity (U/mg^−1 protein) [1]: 635 U/mg^−1 protein

Compound: Bromelain
proteolytic activity [3]: 1.64 U/mg^−1
Isoelectric Point p1 [4]: 9.55
Stability in solutions of 25% methanol (v/v) ([5]; 25° C. for 20 min): stable
loss of activity when the enzymatic solution is heated ([5]; 55° C. for 20 min at pH 6): 50%
Optimal pH ([5]; Inagami and Murachi, 1963): approximately 7
loss in activity caused by lyophilization ([5]; Murachi et al., 1964): 27%
